Test results as given in patent US20220396626A1 (GUANGZHOU BIO GENE TECHNOLOGY, published 2022).

T1: human CLL1 ECD-His (human CLL1 extracellular domain with His tag) (human, UniProt Q5QGZ9 65-265)
T1 construct: also called antigen human CLL1 ECD-His; antigen CLL1; not shown: His tag
T1 sequence: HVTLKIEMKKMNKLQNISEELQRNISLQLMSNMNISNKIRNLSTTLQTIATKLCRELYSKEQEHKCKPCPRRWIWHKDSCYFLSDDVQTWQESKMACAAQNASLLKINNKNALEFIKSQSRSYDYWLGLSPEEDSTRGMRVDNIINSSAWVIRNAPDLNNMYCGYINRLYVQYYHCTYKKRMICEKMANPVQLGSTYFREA

T2: human CLL1 on the surface of transfected cells (HEK293-CLL1; HEK-293T membrane proteome array) (human, UniProt Q5QGZ9 1-265)
T2 construct: whole, on cells; also called HEK293-CLL1 cells; CLL1 target antigen
T2 sequence (looked up): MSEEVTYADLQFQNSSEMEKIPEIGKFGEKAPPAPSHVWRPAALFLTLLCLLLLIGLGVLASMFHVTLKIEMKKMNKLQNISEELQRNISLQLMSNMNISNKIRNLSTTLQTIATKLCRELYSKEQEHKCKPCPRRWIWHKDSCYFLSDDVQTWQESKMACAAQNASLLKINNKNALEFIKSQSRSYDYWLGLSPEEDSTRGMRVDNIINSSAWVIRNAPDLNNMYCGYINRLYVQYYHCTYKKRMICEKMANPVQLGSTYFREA

T3: Recombinant Cynomolgus Monkey CLL-1 Protein (his), Acro CLA-H5263 (cynomolgus monkey, UniProt A0A2K5WXQ4 71-271)
T3 construct: also called Analyte 2
T3 sequence: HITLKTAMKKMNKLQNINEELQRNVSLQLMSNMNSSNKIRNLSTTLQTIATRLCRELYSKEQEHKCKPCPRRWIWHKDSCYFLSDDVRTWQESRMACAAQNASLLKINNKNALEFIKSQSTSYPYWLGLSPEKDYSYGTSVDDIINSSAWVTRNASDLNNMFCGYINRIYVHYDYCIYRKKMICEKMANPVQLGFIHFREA

T4: Recombinant Human CLL-1 Protein (his), Acro CLA-H5245 (human, UniProt Q5QGZ9 65-265)
T4 construct: also called Analyte 1; not shown: his tag
T4 sequence (looked up): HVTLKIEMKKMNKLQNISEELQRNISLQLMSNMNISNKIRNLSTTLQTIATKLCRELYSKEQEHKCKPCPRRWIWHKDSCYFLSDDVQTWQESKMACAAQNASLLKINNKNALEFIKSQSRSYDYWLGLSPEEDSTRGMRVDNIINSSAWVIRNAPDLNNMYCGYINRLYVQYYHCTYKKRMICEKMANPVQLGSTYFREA


Columns and labels:
[1] = biological target: T1, human CLL1 ECD-His (human CLL1 …); assay: BLI (ForteBio), antibody on AHC sensor, 100 nM human CLL1 ECD-His, 1:1 model
Method: In short, the antibody was loaded on the anti-human IgG capture (AHC) biosensor, the sensor was equilibrated in the assay buffer for 30 min offline, and monitored online for 60 s to establish the baseline; the antibody-loaded sensor was incubated with the 100 nM antigen human CLL1 ECD-His for 5 min, then transferred to the assay buffer, and the dissociation rate was measured after 5 min; the kinetic analysis was carried out using a 1:1 combination model.

[2] = biological target: T2, human CLL1 on the surface of …; assay: flow cytometry on HEK293 cells overexpressing CLL1, FITC goat anti-human IgG-Fc secondary; controls on the sheet: Cells + Secondary Antibody 1029.8, Blank 1041.3
Method: In the present example, flow cytometry was used to detect the binding of antibodies ch23D7, ch27H4, and ch19C1 to CLL1 on HEK293 cells. The steps are as follows:
5×10⁵ HEK293 cells overexpressing CLL1 were resuspended in PBS+5% BSA and incubated at 4° C. for 30 min; antibodies of different concentrations (1 μg/mL˜0.01 μg/mL, 10-fold dilutions) were added and incubated at 4° C. for 60 min; after centrifugation and washing, a PBS+5% BSA solution containing FITC-labeled goat anti-human IgG-Fc secondary antibody (1:200, sigma, F9512) was added, and incubated on ice for 30 min in the dark; the cells were washed 3 times and then analyzed by flow cytometry;

[3] = biological target: T2, human CLL1 on the surface of …; assay: flow cytometry on HEK293 cells overexpressing CLL1
Description: In the present example, flow cytometry was used to detect the binding of antibodies hz27H4H1L1, hz27H4H1L2 and CLL1 on HEK293 cells.

[4] = biological target: T1, human CLL1 ECD-His (human CLL1 …); assay: BLI (ForteBio), antibody on AHC sensor, 60 nM human CLL1 ECD-His, 1:1 model
Method: In short, 4 μg/mL antibody was loaded on the anti-human IgG capture (AHC) biosensor, the sensor was equilibrated offline for 30 min in the assay buffer, and the online monitoring was used for 60 s to establish the baseline; the antibody-loaded sensor was incubated with the 60 nM antigen human CLL1 ECD-His for 3 min, then transferred to the assay buffer, and the dissociation rate was measured after 3 min; the kinetic analysis was performed using a 1:1 binding model.

[5] = biological target: T3, Recombinant Cynomolgus Monkey CLL-1 …; assay: SPR, antibody captured on Protein A chip, cynomolgus CLL-1 as analyte
[6] = biological target: T4, Recombinant Human CLL-1 Protein (his), …; assay: SPR, antibody captured on Protein A chip, recombinant human CLL-1 as analyte 3.125-50 nM, 1:1 model

Row | Binder | Kd [1] | Response [1] | koff [1] | kon [1] | MFI at 0.01ug/ml [2] | MFI at 0.1ug/ml [2] | MFI at 1ug/ml [2] | EC50 [3] | Kd [4] | Response [4] | koff [4] | kon [4] | binding result [5] | Kd [6] | koff [6] | kon [6]
1 | chimeric antibody ch19C1 (antibody, V domains shown) VH: QVQLQQSGAELMKPGASVKISCKATGYTFSSYWIEWVKQRPGHGLEWIGEIFPGSGSIKYNEKFKGKATFTADTSSNTAYMQLSSLTSEDSAVHYCARGGTYNDYSLFDYWGQGTTLTVSS VL: QIVLTQSPAIMSASPGEKVTMTCSASSSVSYMYWYQQKPGSSPRLLIFDTSNLASGVPVRFSGSGSGTSYSLTISRMEAEDAATYYCQQWSSYPLTFGAGTKLELK | 10.9 nM | 0.619 | 0.00197 s⁻¹ | 180000 M⁻¹ s⁻¹ | 4610 | 35900 | 163000 |  |  |  |  |  |  |  |  | 
2 | chimeric antibody ch23D7 (antibody, V domains shown) VH: QVQLQQPGSDLVRPGASVKLSCKASGYTFTRYWMHWVKQRPGHGLEWIGYIYPGSGTSNYDEKFKSKATLTVDTSSSTAYMQLSSLTSEDSAVYYCTREARYTMDYWGQGTSVTVSS VL: QIVLTQSPAIMSASPGEKVTMTCSASSSVSYIYWYQQKPGSSPGLLIYDTSNLASGVPVRFSGSGSGTSYSLTISRMEAEDAATYYCQQWSSFPPTFGAGTKLELK | 2.19 nM | 0.654 | 0.000284 s⁻¹ | 130000 M⁻¹ s⁻¹ | 4690 | 34600 | 151000 |  |  |  |  |  |  |  |  | 
3 | chimeric antibody ch27H4 (antibody, V domains shown, also called parent antibody) VH: EVQLQQSGPELVKPGASVKISCKASGYSFTGYHMHWVKQSHVKSLEWIGRINPYNGAASHNQKFKDKATLTVDKSSSTAYMELHSLTSEDSAVYYCARGWDYDGGYYAMDYWGQGTSVTVSS VL: DIVMSQSPSSLAVSVGEKVTMSCKSSQSLLYSDNQKNYLAWYQQKPGQSPKLLIYWASTRESGVPDRFTGSGSGTDFTLTISSVKAEDLAVYYCQQYYTYPYTFGGGTKLEIK | 3.83 nM | 0.634 | 0.00101 s⁻¹ | 265000 M⁻¹ s⁻¹ | 3510 | 25200 | 163000 | 0.358 µg/mL | 3.88 nM | 0.597 | 0.00124 s⁻¹ | 320000 M⁻¹ s⁻¹ |  |  |  | 
4 | anti-human CLL-1 control antibody 1075.7 (antibody, it was captured by anti-human IgG sensors and detected with anti-human IgG-Fc, so a human Fc was present; also called ch1075.7) scFv: ENVLTQSPAIMSASPGEKVTMTCRASSNVISSYVHWYQQRSGASPKLWIYSTSNLASGVPARFSGSGSGTSYSLTISSVEAEDAATYYCQQYSGYPLTFGAGTKLELGGGGSGGGGSGGGGSDIQLQESGPGLVKPSQSLSLTCSVTGYSITSAYYWNWIRQFPGNKLEWMGYISYDGRNNYNPSLKNRISITRDTSKNQFFLKLNSVTTEDTATYYCAKEGDYDVGNYYAMDYWGQGTSVTVSS | 0.414 nM | 0.236 | 4.48e-05 s⁻¹ | 108000 M⁻¹ s⁻¹ | 4580 | 35600 | 222000 | 0.245 µg/mL | 6.76 nM | 0.219 | 0.000997 s⁻¹ | 148000 M⁻¹ s⁻¹ |  |  |  | 
5 | humanized antibody hz27H4H1L1 (antibody, V domains shown, Heavy chain variable region hz27H4H1 with light chain variable region hz27H4L1; also called h27H4H1L1 (complete antibody)) VH: EVQLVQSGAEVKKPGASVKVSCKASGYTFTGYHMHWVRQAPGQRLEWMGRINPYNGAASHNQKFKDRVTITRDTSASTAYMELSSLRSEDTAVYYCARGWDYDGGYYAMDYWGQGTLVTVSS VL: DIQMTQSPSSLSASVGDRVTITCKSSQSLLYSDNQKNYLAWYQQKPGKAPKLLIYWASTRESGVPSRFSGSGSGTDFTLTISSLQPEDFATYYCQQYYTYPYTFGQGTKLEIK |  |  |  |  |  |  |  | 0.262 µg/mL | 2.29 nM | 0.612 | 0.000862 s⁻¹ | 377000 M⁻¹ s⁻¹ | no binding (tested: 50 nM) | 1.12 nM | 0.00549 s⁻¹ | 4.91e+06 M⁻¹ s⁻¹
6 | humanized antibody hz27H4H1L2 (antibody, V domains shown, Heavy chain variable region hz27H4H1 with light chain variable region hz27H4L2; also called h27H4H1L2 (complete antibody)) VH: EVQLVQSGAEVKKPGASVKVSCKASGYTFTGYHMHWVRQAPGQRLEWMGRINPYNGAASHNQKFKDRVTITRDTSASTAYMELSSLRSEDTAVYYCARGWDYDGGYYAMDYWGQGTLVTVSS VL: DIVMTQSPLSLPVTPGEPASISCKSSQSLLYSDNQKNYLAWYLQKPGQSPQLLIYWASTRESGVPDRFSGSGSGTDFTLKISRVEAEDVGVYYCQQYYTYPYTFGQGTKLEIK |  |  |  |  |  |  |  | 0.321 µg/mL | 2.21 nM | 0.726 | 0.000976 s⁻¹ | 441000 M⁻¹ s⁻¹ | no binding (tested: 50 nM) | 1.08 nM | 0.00544 s⁻¹ | 5.04e+06 M⁻¹ s⁻¹

The remaining lines, values ahead:

Row | Kd [1] | Response [1] | koff [1] | kon [1] | MFI at 0.01ug/ml [2] | MFI at 0.1ug/ml [2] | MFI at 1ug/ml [2] | EC50 [3] | Kd [4] | Response [4] | koff [4] | kon [4] | binding result [5] | Kd [6] | koff [6] | kon [6] | Binder
7 |  |  |  |  |  |  |  |  |  |  |  |  | no binding (tested: 50 nM) | 5.75 nM | 0.00509 s⁻¹ | 886000 M⁻¹ s⁻¹ | 19C1-scFv-hFc (Fc fusion, VL-(G4S)3-VH structure with C-terminal human IgG1 Fc; also called Anti-CLL1 scFv-hIgG1; not shown: human IgG1 Fc fused at the C-terminus) scFv: QIVLTQSPAIMSASPGEKVTMTCSASSSVSYMYWYQQKPGSSPRLLIFDTSNLASGVPVRFSGSGSGTSYSLTISRMEAEDAATYYCQQWSSYPLTFGAGTKLELKGGGGSGGGGSGGGGSQVQLQQSGAELMKPGASVKISCKATGYTFSSYWIEWVKQRPGHGLEWIGEIFPGSGSIKYNEKFKGKATFTADTSSNTAYMQLSSLTSEDSAVHYCARGGTYNDYSLFDYWGQGTTLTVSS
8 |  |  |  |  |  |  |  |  |  |  |  |  | no binding (tested: 50 nM) | 3.06 nM | 0.0126 s⁻¹ | 4.11e+06 M⁻¹ s⁻¹ | 27H4-scFv-hFc (Fc fusion, VL-(G4S)3-VH structure with C-terminal human IgG1 Fc; also called Anti-CLL1 scFv-hIgG1; not shown: human IgG1 Fc fused at the C-terminus) scFv: DIVMSQSPSSLAVSVGEKVTMSCKSSQSLLYSDNQKNYLAWYQQKPGQSPKLLIYWASTRESGVPDRFTGSGSGTDFTLTISSVKAEDLAVYYCQQYYTYPYTFGGGTKLEIKGGGGSGGGGSGGGGSEVQLQQSGPELVKPGASVKISCKASGYSFTGYHMHWVKQSHVKSLEWIGRINPYNGAASHNQKFKDKATLTVDKSSSTAYMELHSLTSEDSAVYYCARGWDYDGGYYAMDYWGQGTSVTVSS
9 |  |  |  |  |  |  |  |  |  |  |  |  | no binding (tested: 50 nM) | 110 nM | 0.0322 s⁻¹ | 293000 M⁻¹ s⁻¹ | 23D7-scFv-hFc (Fc fusion, VL-(G4S)3-VH structure with C-terminal human IgG1 Fc; also called Anti-CLL1 scFv-hIgG1; not shown: human IgG1 Fc fused at the C-terminus) scFv: QIVLTQSPAIMSASPGEKVTMTCSASSSVSYIYWYQQKPGSSPGLLIYDTSNLASGVPVRFSGSGSGTSYSLTISRMEAEDAATYYCQQWSSFPPTFGAGTKLELKGGGGSGGGGSGGGGSQVQLQQPGSDLVRPGASVKLSCKASGYTFTRYWMHWVKQRPGHGLEWIGYIYPGSGTSNYDEKFKSKATLTVDTSSSTAYMQLSSLTSEDSAVYYCTREARYTMDYWGQGTSVTVSS
10 |  |  |  |  |  |  |  |  | 2.49 nM | 0.722 | 0.00109 s⁻¹ | 438000 M⁻¹ s⁻¹ |  |  |  |  | humanized antibody hz27H4H1L3 (antibody, V domains shown, Heavy chain variable region hz27H4H1 with light chain variable region hz27H4L3) VH: EVQLVQSGAEVKKPGASVKVSCKASGYTFTGYHMHWVRQAPGQRLEWMGRINPYNGAASHNQKFKDRVTITRDTSASTAYMELSSLRSEDTAVYYCARGWDYDGGYYAMDYWGQGTLVTVSS VL: not shown
